Substitutions are numbered along the chain they refer to.
T1: FZD4 CRD (Homo sapiens, UniProt Q9ULV1)
T1 construct: E42-V167; GPI anchor signal (C); expressed in transfected cells; host or cells: CHO cells, lentiviral pLenti-puro
T1 sequence (Q9ULV1 42-167): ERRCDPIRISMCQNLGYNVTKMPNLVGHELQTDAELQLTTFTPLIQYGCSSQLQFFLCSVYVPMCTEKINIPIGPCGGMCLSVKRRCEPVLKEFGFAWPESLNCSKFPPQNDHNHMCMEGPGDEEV

T2: FZD5 CRD (Homo sapiens, UniProt Q13467)
T2 construct: K29-T156; GPI anchor signal (C); expressed in transfected cells; host or cells: CHO cells, lentiviral pLenti-puro
T2 sequence (Q13467 29-156): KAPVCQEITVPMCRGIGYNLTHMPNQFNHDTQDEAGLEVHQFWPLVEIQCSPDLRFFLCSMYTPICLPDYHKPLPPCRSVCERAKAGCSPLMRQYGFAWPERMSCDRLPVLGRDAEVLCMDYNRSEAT

T3: FZD9 CRD (Homo sapiens, UniProt O00144)
T3 construct: G35-A161; GPI anchor signal (C); expressed in transfected cells; host or cells: CHO cells, lentiviral pLenti-puro
T3 sequence (O00144 35-161): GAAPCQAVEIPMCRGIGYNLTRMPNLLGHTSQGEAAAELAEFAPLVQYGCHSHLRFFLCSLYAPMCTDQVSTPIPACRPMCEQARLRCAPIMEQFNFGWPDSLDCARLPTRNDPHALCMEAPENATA

B1: Fab-2906: anti-FZD5 Fab with antibody variable region Fv-2906; CDR SEQ ID NOs: 35, 36, 45, 84, 121, 158 (antibody, V domains shown)
VH: EVQLVESGGGLVQPGGSLRLSCAASGFNFSSSSIHWVRQAPGKGLEWVAYISSSYGYTYYADSVKGRFTISADTSKNTAYLQMNSLRAEDTAVYYCARTVRGSKKPYFSGWAMDYWGQGTLVTVSS
VL: DIQMTQSPSSLSASVGDRVTITCRASQSVSSAVAWYQQKPGKAPKLLIYSASSLYSGVPSRFSGSRSGTDFTLTISSLQPEDFATYYCQQWSWGFLITFGQGTKVEIK
B2: Fab-2899: anti-FZD5 Fab with antibody variable region Fv-2899; CDR SEQ ID NOs: 35, 36, 38, 77, 114, 153 (antibody, V domains shown)
VH: EVQLVESGGGLVQPGGSLRLSCAASGFNLYYYYMHWVRQAPGKGLEWVASIYPSSGSTSYADSVKGRFTISADTSKNTAYLQMNSLRAEDTAVYYCARGALDYWGQGTLVTVSS
VL: DIQMTQSPSSLSASVGDRVTITCRASQSVSSAVAWYQQKPGKAPKLLIYSASSLYSGVPSRFSGSRSGTDFTLTISSLQPEDFATYYCQQWYSSYGLITFGQGTKVEIK
B3: Fab-2902: anti-FZD5 Fab with antibody variable region Fv-2902; CDR SEQ ID NOs: 35, 36, 41, 80, 117, 153 (antibody, V domains shown)
VH: B2 VH with L29I, Y30S, M34I, Y52S, P53S, G56S
VL: B2 VL with S93A, S94F, Y95G, G96A
B4: Fab-2922: anti-FZD5 Fab with antibody variable region Fv-2922; CDR SEQ ID NOs: 35, 36, 61, 99, 137, 171 (antibody, V domains shown)
VH: B1 VH with F29I, S30Y, S33Y, I34M, Y50S, S53P, S54Y, Y55S, Y59S
VL: B2 VL with W91S, Y92F, S93V, S94Y, Y95P, G96Y
B5: Fab-2923: anti-FZD5 Fab with antibody variable region Fv-2923; CDR SEQ ID NOs: 35, 36, 62, 100, 138, 162 (antibody, V domains shown)
VH: B2 VH with P53S, L101M
VL: B2 VL with S93G, S94Y, Y95S, G96A

Each molecule was assayed against T1, FZD4 CRD (assay: Flow cytometry of anti-FZD5 Fab binding to CHO cells overexpressing Frizzled CRD). Conditions: not given.
Method: Plasmids: pLCKO lentiviral vector used for knockout (TKO) library construction and expression of individual gRNAs was constructed as described previously (Hart et al., 2015). Briefly, single guide RNA (sgRNA) scaffold was amplified from px330 (Addgene 42230) and cloned into pLKO.TRC005 lentiviral vector (Broad Institute, Cambridge, Mass.) using AgeI/EcoRI restriction sites. BfuAI sites were added at the 5′ end of the sgRNA scaffold for cloning the TKO library or individual gRNA target sequences. Lenti Cas9-2A-BsdR vector used to generate Cas9 stable expression cell lines was constructed as described previously (Hart et al., 2015). Briefly, lentiCRISPR pXPR_001 (Addgene 49535) was modified through removal of the sgRNA scaffold region through NdeI/EcoRI digest and blunt ends generation using Large Klenow Fragment (NEB). 2A-puro was replaced with 2A-BsdR by PCR using the NheI/MluI sites. Each of the 10 human Frizzled cysteine rich domains (CRDs) were cloned into the lentiviral expression plasmid pLenti-puro in the following cassette: FZD_CRD-MYC-GPI.
Flow cytometry: Primary staining of cells was performed by treatment with 200 nM Frizzled profiler Fab. Alexa Fluor 488 AffiniPure F(ab′)2 was used as the secondary antibody (Jackson ImmunoResearch #109-546-097). c-Myc (9E10) IgG1 (primary antibody, Santa Cruz, lot #D0306) and Alexa Fluor 488 IgG (secondary antibody, Life technologies, lot #1458649) were used as controls. Dead cells were excluded by staining with Fixable Viability Dye eFluor 660 (eBioscience, catalogue number 65-0864). All reagents were used as per manufacturer's instructions. Flow cytometry was performed on a BD FACSCanto II flow cytometer (BD Biosciences), and data were analyzed with FlowJo software (FlowJo, LLC).
To confirm that the FZD5-WNT7B circuit is not driven simply by expression and rule out the possibility of a disconnect between RNA and protein levels for the Wnt receptors in HPAF-II cells, a panel of recombinant Fabs were generated, alternatively referred to herein as ‘Frizzled profiler’, that can detect and discriminate all but one of the ten Frizzled receptors. […] To characterize the binding specificity of these Fabs on cells, a panel of 10 CHO cell lines was generated, each expressing the CRD domain of a different myc-tagged Frizzled family member anchored at the plasma membrane through a GPI anchor (CHO-myc-FZDGPI). Despite the high sequence identity between Frizzled family members (FIG. 7A, FIG. 7B), selective Fabs were identified for FZD4, FZD5, FZD6 and FZD10 as assessed by immunofluorescence and flow cytometry (FIG. 7D and FIG. 8). […] The FZD8 CRD is most homologous to that of FZD5 (FIG. 7B). These Fabs can be used to discriminate expression of FZD1, FZD2, FZD4, FZD5, FZD6, FZD7, FZD8, FZD9 and FZD10 (FIG. 7D and FIG. 8). The ‘Frizzled profiler’ therefore consists of 10 different Fabs that can be used to discriminate expression of 9 different Frizzled family members. The Frizzled profiler was then used to confirm that HPAF-II cells express FZD1, FZD5, FZD6 and possibly FZD8 (FIG. 7E).
(§1) The binding of anti-FZD5 Fabs to cell surface-expressed Frizzled protein was further determined for each member of the Frizzled family via flow cytometry and immunofluorescence analysis of a panel of 10 CHO cell lines, each ectopically over-expressing the extracellular cysteine-rich domain (CRD) of a different Frizzled protein family member.

Median fluorescence, Frizzled CRD overexpressed on CHO cells: FZD4 | Molecule
12.3 | B1
11.86 | B2
10.27 | B3
12.75 | B4
10.55 | B5

Each molecule was assayed against T4, FZD1 CRD (Homo sapiens, UniProt Q9UP38) (assay: Immunofluorescence of anti-FZD5 Fab binding to CHO cells overexpressing Frizzled CRD). Conditions: not given.
T4 construct: D112-P238; GPI anchor signal (C); expressed in transfected cells; host or cells: CHO cells, lentiviral pLenti-puro
Parameters: key: −: no binding; +: very weak binder; ++: weak binder; +++: good binder; ++++: very good binder
Procedure, shortened: (§2)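 Specificity of anti-FZD5 Fabs was tested on CHO cells displaying membrane-anchored Frizzled CRDs (myc-tagged, GPI-linked), one family member per line. Detection was by immunofluorescence.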

Immunofluorescence binding, Frizzled CRD overexpressed on CHO cells: FZD1 | Molecule
− | B1
+++ | B2
− | B3
− | B4
− | B5

What follows are molecules tested against T2, FZD5 CRD in the same assay as above. Conditions: not given.
Parameters: key: −: no binding; +: very weak binder; ++: weak binder; +++: good binder; ++++: very good binder
Procedure, shortened: as §2

Immunofluorescence binding, Frizzled CRD overexpressed on CHO cells: FZD5 | Molecule
++++ | B1
+++ | B2
++++ | B3
++++ | B4
++++ | B5

These molecules were tested against T3, FZD9 CRD in the same assay as above. Conditions: not given.
Parameters: key: −: no binding; +: very weak binder; ++: weak binder; +++: good binder; ++++: very good binder
Procedure, shortened: as §2

Immunofluorescence binding, Frizzled CRD overexpressed on CHO cells: FZD9 | Molecule
− | B1
− | B2
− | B3
− | B4
− | B5

Each molecule was assayed on ASPC-1 cells (assay: Effect of anti-FZD5 Fabs on proliferation of pancreatic cancer cell lines (percent growth inhibition)). Conditions: Fab 10 μg/ml.
Assay type: cell-based, human
Method: (§3) The effect of presently disclosed anti-FZD5 Fabs on proliferation of RNF43 loss-of-function mutant pancreatic cancer cell lines HPAFII, PATU8988S and ASPC-1; and on pancreatic cancer cell line RWP1, was tested at […] and 10 μg/ml.

Molecule | percent growth inhibition, ASPC-1 10 μg/ml [%]
B1 | 35.20
B2 | 33.63
B3 | 17.39
B4 | 27.72
B5 | 34.00

What follows are molecules tested on HPAFII cells in the same assay as above. Conditions: Fab 2 μg/ml.
Assay type: cell-based, human
Method: as §3

Molecule | percent growth inhibition, HPAFII 2 μg/ml [%]
B1 | 15.24
B2 | 36.18
B3 | 25.42
B4 | 8.28
B5 | 15.14

Same assay, conditions: Fab 10 μg/ml

Molecule | percent growth inhibition, HPAFII 10 μg/ml [%]
B1 | 14.98
B2 | 55.71
B3 | 21.81
B4 | 8.14
B5 | 18.17

What follows are molecules tested on PATU8988S cells in the same assay as above. Conditions: Fab 10 μg/ml.
Assay type: cell-based, human
Method: as §3

Molecule | percent growth inhibition, PATU8988s 10 μg/ml [%]
B1 | −30.04
B2 | −3.10
B3 | −32.61
B4 | −24.14
B5 | −19.05

What follows are molecules tested on RWP1 cells in the same assay as above. Conditions: Fab 10 μg/ml.
Assay type: cell-based, human
Method: as §3

Molecule | percent growth inhibition, RWP1 10 μg/ml [%]
B1 | 5.47
B2 | 47.83
B3 | 31.22
B4 | 7.59
B5 | 40.29

The molecules below were run on CHO cells not expressing Frizzled CRD (assay: Flow cytometry of anti-FZD5 Fab binding to CHO cells not expressing Frizzled CRD (background)). Conditions: not given.
Excerpt: as §1

Molecule | Median fluorescence, Frizzled CRD overexpressed on CHO cells: None
B1 | 3.89
B2 | 4.91
B3 | 4.66
B4 | 3.89

The molecules below were run on PATU8988S cells (assay: Effect of anti-FZD5 Fabs on proliferation of pancreatic cancer cell lines (percent growth inhibition)). Conditions: Fab 2 μg/ml.
Assay type: cell-based, human

Molecule | percent growth inhibition, PATU8988s 2 μg/ml [%]
B1 | −17.42
B2 | 4.94
B3 | −15.75
B4 | 9.16
B5 | −18.54
